Test results reported in paper PMC4452782.

Experiments:
[1] = molecular target: GEC1/GABARAPL1 (GL1) (human (endogenous in MDA-MB-436 and MCF-7)) (UniProt Q9H0R8); assay: proximity ligation; P-LISA (Duolink In Situ Detection Reagents Red) on MDA-MB-436 cells fixed with 4% paraformaldehyde and permeabilised with cold methanol; endogenous proteins; mouse anti-SQSTM1 or anti-NIX with rabbit anti-LC3B or anti-GL1; dots per cell counted with BlobFinder; untreated cells, also after Rapa (10 uM, 5 h), Rot (50 uM, 24 h) or CCCP (100 uM, 24 h)
[2] = molecular target: LC3B (human (endogenous in MDA-MB-436)) (UniProt Q9GZQ8); assay: as above

Sequence of NIX/BNIP3L, O60238 1-219 (natural protein; other documents disagree on this pair) (O60238 whole entry): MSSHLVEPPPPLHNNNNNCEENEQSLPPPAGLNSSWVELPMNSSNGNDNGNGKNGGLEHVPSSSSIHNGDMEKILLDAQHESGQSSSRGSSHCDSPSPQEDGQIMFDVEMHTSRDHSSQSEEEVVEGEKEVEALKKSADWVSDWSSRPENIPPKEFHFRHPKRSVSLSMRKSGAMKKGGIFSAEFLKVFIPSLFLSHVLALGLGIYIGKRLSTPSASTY
Sequence of GEC1/GABARAPL1 (GL1) (human (endogenous in MDA-MB-436 and MCF-7)) (Q9H0R8 whole entry): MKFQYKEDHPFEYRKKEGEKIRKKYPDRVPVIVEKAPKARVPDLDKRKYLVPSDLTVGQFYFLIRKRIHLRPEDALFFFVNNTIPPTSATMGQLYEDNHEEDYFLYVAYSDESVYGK

“NIX/BNIP3L, O60238 1-219 (natural protein; other documents disagree on this pair)” showed a P-LISA dots per cell [1] of 11.6 dots/cell and a P-LISA dots per cell [2] of 18.9 dots/cell.
